From PMC12489474, “New structural insights into the control of the retinoic acid receptors RAR/RXR by DNA, ligands, and transcriptional coregulators” (Nucleic Acids Research, 2025)
Values belong to the binder of their own block, whether it stands above or below them.

B8: NCoRNID (nuclear receptor interaction domain of the Nuclear receptor CoRepressor) (domain or fragment, UniProt Q60974 2059-2325, looked up)
chain: QVPRTHRLITLADHICQIITQDFARNQVPSQASTSTFQTSPSALSSTPVRTKTSSRYSPESQSQTVLHPRPGPRVSPENLVDKSRGSRPGKSPERSHIPSEPYEPISPPQGPAVHEKQDSMLLLSQRGVDPAEQRSDSRSPGSISYLPSFFTKLESTSPMVKSKKQEIFRKLNSSGGGDSDMAAAQPGTEIFNLPAVTTSGAVSSRSHSFADPASNLGLEDIIRKALMGSFDDKVEDHGVVMSHPVGIMPGSASTSVVTSSEARRDE
notes: Unlabelled form used for SEC-MALS, SEC-SAXS and HDX-MS; also called NCOR1

Key:
[1] = target: T1, RARalpha dAB dF;RXRalpha dAB (Mus musculus / Homo sapiens (Methods …, UniProt P11416;P19793 82-421;126-462, |)); assay: fluorescence anisotropy; apo; Fluorescence anisotropy: 20 mM Tris-HCl pH 7.5, 75 mM NaCl, 75 mM KCl, 2 mM CHAPS, 4 mM MgCl2, 2 mM TCEP, 10% glycerol, 0.5 nM Cy5-DNA, 4 uM ligands, 294 K; conditions: protein: recombinant;recombinant, tags: N-terminal His6 (pET15b), copies: 1;1, label: Cy5 on forward strand
[2] = target: T1, RARalpha dAB dF;RXRalpha dAB; assay: fluorescence anisotropy; BMS493; Fluorescence anisotropy: 20 mM Tris-HCl pH 7.5, 75 mM NaCl, 75 mM KCl, 2 mM CHAPS, 4 mM MgCl2, 2 mM TCEP, 10% glycerol, 0.5 nM Cy5-DNA, 4 uM ligands, 294 K; conditions: protein: recombinant;recombinant, tags: N-terminal His6 (pET15b), copies: 1;1, label: Cy5 on forward strand
[3] = target: T1, RARalpha dAB dF;RXRalpha dAB; assay: fluorescence anisotropy; AM580 + CD3254; Fluorescence anisotropy: 20 mM Tris-HCl pH 7.5, 75 mM NaCl, 75 mM KCl, 2 mM CHAPS, 4 mM MgCl2, 2 mM TCEP, 10% glycerol, 0.5 nM Cy5-DNA, 4 uM ligands, 294 K; conditions: protein: recombinant;recombinant, tags: N-terminal His6 (pET15b), copies: 1;1, label: Cy5 on forward strand
[4] = target: RARalpha dAB dF;RXRalpha dAB;NCoR NID (Mus musculus / Homo sapiens (Methods …, UniProt P11416;P19793;Q60974 82-421;126-462;2059-2325, ||)); assay: SEC-SAXS, HDX-MS; BMS493; Fluorescence anisotropy: 20 mM Tris-HCl pH 7.5, 75 mM NaCl, 75 mM KCl, 2 mM CHAPS, 4 mM MgCl2, 2 mM TCEP, 10% glycerol, 0.5 nM Cy5-DNA, 4 uM ligands, 294 K; conditions: protein: recombinant;recombinant;recombinant, tags: N-terminal His6 (pET15b), copies: 1;1;1
[5] = target: T2, HsRXRAΔAB (retinoid X receptor alpha without the A/B domain) (human (printed as HsRXRAΔAB; the same …, UniProt P19793 126-462); assay: HDX-MS; RAR/RXR and RR–DNA (DR0, DR1, DR5, IR0) with and without NCoRNID, with BMS493; 4°C, 20 μM complex diluted 10-fold into deuterated buffer pD 7.5; 4 s to 10 800 s; RAR and RXR read as subunits of the heterodimer; conditions: both partners purified
T2 construct: A/B domain removed; In the rows of this molecule it stood as a subunit of the RAR/RXR heterodimer; Vector pET28b; also called RXRα; MmRXRAΔAB; source: E. coli BL21 (DE3), purified (HisTrap HP, thrombin cleavage, SEC Superdex 75); not shown: His6, N-terminal, cleaved
T2 sequence (looked up): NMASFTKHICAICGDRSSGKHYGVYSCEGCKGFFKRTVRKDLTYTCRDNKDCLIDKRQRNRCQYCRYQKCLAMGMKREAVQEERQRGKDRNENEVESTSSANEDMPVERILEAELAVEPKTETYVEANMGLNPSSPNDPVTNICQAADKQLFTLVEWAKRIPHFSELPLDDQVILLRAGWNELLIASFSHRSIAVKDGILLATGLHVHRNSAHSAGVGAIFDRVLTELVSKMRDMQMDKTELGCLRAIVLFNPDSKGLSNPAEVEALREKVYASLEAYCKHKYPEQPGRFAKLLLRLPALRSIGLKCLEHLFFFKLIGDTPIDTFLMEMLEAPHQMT

[6] = target: NCoRNID mut1 (IR region replaced by a fully disordered segment) (UniProt Q60974); assay: MST; RAR/RXR bound to DR1 DNA (RR–DR1), no ligand (apo); heterodimer titrated against labelled NCoRNID; same buffer, 22°C
[7] = target: TIF-2NRID (nuclear receptor interaction domain of the transcriptional intermediary factor 2); assay: SEC; with SDS–PAGE; complexes of RR–DNA and TIF-2NRID formed in the presence of both agonists (AM580, CD3254)
[8] = target: Alexa488-labeled TIF-2NRID; assay: fluorescence polarisation; steady-state fluorescence anisotropy; RR–DR1 titrated against 10 nM Alexa488-TIF-2NRID with 12 μM AM580 and CD3254; same buffer
[9] = target: Alexa488-labeled TIF-2NRID; assay: fluorescence polarisation; steady-state fluorescence anisotropy; RR–DR5 titrated against 10 nM Alexa488-TIF-2NRID with 12 μM AM580 and CD3254; same buffer
[10] = target: NCoRNID mut2 (point mutations designed to disrupt the helical folding of the IR region) (UniProt Q60974); assay: MST; RR–DR5 with BMS493; heterodimer titrated against labelled NCoRNID; same buffer, 22°C
[11] = target: Alexa488-labeled TIF-2NRID; assay: fluorescence polarisation; steady-state fluorescence anisotropy; RR–DR0 titrated against 10 nM Alexa488-TIF-2NRID with 12 μM AM580 and CD3254; same buffer
[12] = target: B8; assay: SEC-MALS; with SDS–PAGE; complexes of RR–DNA and NCoRNID formed in the presence of BMS493; conditions: both partners purified
[13] = target: Alexa488-labeled TIF-2NRID; assay: fluorescence polarisation; steady-state fluorescence anisotropy; RR–IR0 titrated against 10 nM Alexa488-TIF-2NRID with 12 μM AM580 and CD3254; same buffer
[14] = target: Alexa488-labeled TIF-2NRID; assay: fluorescence polarisation; steady-state fluorescence anisotropy; RAR/RXR without DNA titrated (from 4 μM, 2-fold dilutions) against 10 nM Alexa488-TIF-2NRID with 12 μM AM580 and CD3254; 20 mM Tris–HCl pH 7.5, 75 mM NaCl, 75 mM KCl, 2 mM CHAPS, 4 mM MgCl2, 5 mM DTT, 10% glycerol
[15] = target: NCoRNID mut2 (point mutations designed to disrupt the helical folding of the IR region) (UniProt Q60974); assay: MST; RAR/RXR bound to DR5 DNA (RR–DR5), no ligand (apo); heterodimer titrated against labelled NCoRNID; same buffer, 22°C
[16] = target: T2, HsRXRAΔAB (retinoid X receptor alpha …); assay: SEC-MALS; purified RAR/RXR heterodimer; single peak, molecular weight matching the heterodimer; conditions: both partners purified
[17] = 5' overhang 1 nt at both ends (so in the source)

B1: IR0 Trim16 Cy5 (dsDNA)
DNA 1: GCAGGGTCATGACCCCGC
DNA 2: CGCGGGGTCATGACCCTG
- Kd [1, 17]: 1.9 ± 1.3 nM
- Kd [2, 17]: 29.1 ± 24.2 nM
- Kd [3, 17]: 3.8 ± 3.1 nM

B2: DR1 idealized (dsDNA)
DNA 1: CTAGGTCAAAGGTCAGC
DNA 2: GCTGACCTTTGACCTAG
- binding result ([4]; blunt): binds

B3: DR5 Rarb2 Cy5 (dsDNA)
DNA 1: AGGGTTCACCGAAAGTTCACT
DNA 2: AGTGAACTTTCGGTGAACCCT
- Kd ([1]; blunt): 1.7 ± 0.8 nM
- Kd ([2]; blunt): 15 ± 2 nM
- Kd ([3]; blunt): 2.4 ± 0.9 nM

B4: IR0 Trim16 (dsDNA)
DNA 1: GCAGGGTCATGACCCCGC
DNA 2: CGCGGGGTCATGACCCTG
- binding result [4, 17]: binds

B5: DR0 Hoxb13 Cy5 (dsDNA)
DNA 1: GAAGGTCAAGGCCAAG
DNA 2: CTTGGCCTTGACCTTC
- Kd ([1]; blunt): 33.5 ± 16.4 nM
- Kd ([2]; blunt): 101 ± 48.1 nM
- Kd ([3]; blunt): 24.1 ± 17.3 nM

B6: DR1 idealized Cy5 (dsDNA)
DNA 1: CTAGGTCAAAGGTCAGC
DNA 2: GCTGACCTTTGACCTAG
- Kd ([1]; blunt): 6.1 ± 2.2 nM
- Kd ([2]; blunt): 24.6 ± 5 nM
- Kd ([3]; blunt): 8.7 ± 2.9 nM

B7: DR5 Rarb2 (dsDNA)
DNA 1: AGGGTTCACCGAAAGTTCACT
DNA 2: AGTGAACTTTCGGTGAACCCT
- binding result ([4]; blunt): binds

Binder: B8
- binding result [5]: binds

- Kd [6]: 347 nM
- stoichiometry N [7]: 1
- Kd [8]: 30.1 nM
- Kd [9]: 27.7 nM
- Kd [10]: 538 nM
- Kd [11]: 55.1 nM
- stoichiometry N [12]: 1
- Kd [13]: 22.7 nM
- Kd [14]: 126 nM
- Kd [15]: 576 nM
B9: RAR/RXR heterodimer (RARAΔABF with RXRAΔAB) (complex)
chain 1: PRIYKPCFVCQDKSSGYHYGVSACEGCKGFFRRSIQKNMVYTCHRDKNCIINKVTRNRCQYCRLQKCFDVGMSKESVRNDRNKKKKEAPKPECSESYTLTPEVGELIEKVRKAHQETFPALCQLGKYTTNNSSEQRVSLDIDLWDKFSELSTKCIIKTVEFAKQLPGFTTLTIADQITLLKAACLDILILRICTRYTPEQDTMTFSDGLTLNRTQMHNAGFGPLTDLVFAFANQLLPLEMDDAETGLLSAICLICGDRQDLEQPDKVDMLQEPLLEALKVYVRKRRPSRPHMFPKMLMKITDLRSISAKGAERVITLKMEIPGSMPPLIQEMLENSEGLD
chain 2: NMASFTKHICAICGDRSSGKHYGVYSCEGCKGFFKRTVRKDLTYTCRDNKDCLIDKRQRNRCQYCRYQKCLAMGMKREAVQEERQRGKDRNENEVESTSSANEDMPVERILEAELAVEPKTETYVEANMGLNPSSPNDPVTNICQAADKQLFTLVEWAKRIPHFSELPLDDQVILLRAGWNELLIASFSHRSIAVKDGILLATGLHVHRNSAHSAGVGAIFDRVLTELVSKMRDMQMDKTELGCLRAIVLFNPDSKGLSNPAEVEALREKVYASLEAYCKHKYPEQPGRFAKLLLRLPALRSIGLKCLEHLFFFKLIGDTPIDTFLMEMLEAPHQMT
notes: retinoic acid receptor alpha, residues 82-421 of Uniprot entry P11416; as the chain of m1; as the chain of m2; 1:1 heterodimer by SEC-MALS; this is told in the format of each assay; also called RR–DR0; source: E. coli BL21 (DE3); RAR and RXR purified separately, mixed (2-fold excess of RAR), heterodimer purified by SEC (Superdex 200); not shown: His6, N-terminal, cleaved

- stoichiometry N [16]: 1
B10: MmRARAΔABF (retinoic acid receptor alpha without the A/B and F domains) (domain or fragment, UniProt P11416 82-421, looked up)
chain: PRIYKPCFVCQDKSSGYHYGVSACEGCKGFFRRSIQKNMVYTCHRDKNCIINKVTRNRCQYCRLQKCFDVGMSKESVRNDRNKKKKEAPKPECSESYTLTPEVGELIEKVRKAHQETFPALCQLGKYTTNNSSEQRVSLDIDLWDKFSELSTKCIIKTVEFAKQLPGFTTLTIADQITLLKAACLDILILRICTRYTPEQDTMTFSDGLTLNRTQMHNAGFGPLTDLVFAFANQLLPLEMDDAETGLLSAICLICGDRQDLEQPDKVDMLQEPLLEALKVYVRKRRPSRPHMFPKMLMKITDLRSISAKGAERVITLKMEIPGSMPPLIQEMLENSEGLD
notes: retinoic acid receptor alpha, residues 82-421 of Uniprot entry P11416 (DBD, hinge and LBD; A/B and F domains removed); In the rows of this molecule it stood as a subunit of the RAR/RXR heterodimer; Vector pET15b; also called RARα; NR1B1; source: E. coli BL21 (DE3), purified (HisTrap HP)
